Measurements: patent publication US20230348852A1, “METHODS AND COMPOSITIONS FOR OCULAR CELL THERAPY” (NOVARTIS AG, priority 2020, published 2023)

Experiments:
[1] = system: beta-2-microglobulin gene; assay: CRISPR/Cas9-mediated deletion of B2M in LSCs (nucleofection, FACS); format: cell-based, human; settings: nucleofection with Cas9 protein SEQ ID NO: 107, LSCs at passage 0, FACS
Procedure: LSCs at passage 0 were trypsinized with TryLE®Express Enzym (ThermoFisher, Cat #12605010) for 15 min in 5%CO2 at 37° C. After scraping the cells, the reaction was stopped by using cell culture medium containing 10% Serum and transferred to a falcon tube. After counting cells using Vi-cell 200′000 cells were prepared per reaction by transferring 200′000 cells in single tubes and centrifuged at 1000 rpm for 5 min.
The supernatant was aspirated using manually pipetting to avoid cell loss and the cells were resuspended in the Stem cell nucleofector solution II (Lonza, Cat #VPH-5022). Resuspend cells in nucleofector solution immediately before adding the Cas9 protein:sgRNA mixture. A stock of 100 µM (3.23 µg/µl) was prepared resuspending 5.1 nanomoles of single-guideRNA (sgRNA) in 51 µl 10 mM Tris buffer pH7.4. […]
In order to prevent cells sticking to the wall, collection tubes were filled with FACS buffer for 30 minutes before the sort and aspirated before adding the collection medium. […] FACS data were analyzed using BD FACSDiva software and FlowJo software.

human B2M = assay: CRISPR/Cas9-mediated deletion of B2M in HEK293 (lipofection, FACS); format: cell-based; settings: lipofection of tracrRNA, gRNA and Cas9 mRNA; FACS after 72 h

B1: 1-CR004366: gRNA targeting human B2M; targeting domain SEQ ID NO: 108; sgRNA SEQ ID NO: 120; from Dharmacon (nucleic acid)
guide: GAGUAGCGCGAGCACAGCUAGUUUUAGAGCUAGAAAUAGCAAGUUAAAAUAAGGCUAGUCCGUUAUCAACUUGAAAAAGUGGCACCGAGUCGGUGCUUUU
modifications: listed as RNA, chemistry not given here
notes: gRNA targeting human B2M; from Dharmacon
LSCs not expressing B2M and HLA I (HLA A, B and C) on cell surface [1]: about 70%
B2M knockout efficiency in HEK293 (human B2M): 70%
